Tests used:
[1] = biological target: T1, recombinant full-length human PABPN1 (nuclear poly(A)-binding protein 1), T7-tagged and His-tagged, produced … (human, UniProt Q86U42 1-306); assay: BIAcore affinity measurement (SPR)
T1 construct: also called recombinant PABPN1; T7-tagged PABPN1; not shown: T7 Tag and His Tag from vector pET28a
T1 sequence (looked up): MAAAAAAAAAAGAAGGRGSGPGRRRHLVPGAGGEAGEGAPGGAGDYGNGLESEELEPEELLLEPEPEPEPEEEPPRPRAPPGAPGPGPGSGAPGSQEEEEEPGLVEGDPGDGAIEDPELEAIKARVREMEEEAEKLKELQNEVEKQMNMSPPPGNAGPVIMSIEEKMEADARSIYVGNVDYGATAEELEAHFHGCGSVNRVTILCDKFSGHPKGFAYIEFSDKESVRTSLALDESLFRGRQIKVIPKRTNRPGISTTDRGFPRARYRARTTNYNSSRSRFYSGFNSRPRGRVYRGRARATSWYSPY

[2] = biological target: T1, recombinant full-length human PABPN1 …; assay: BIAcore affinity measurement (SPR); remark: listed apart in the source
[3] = biological target: T2, native PABPN1 purified from bovine calf thymus (bovine, UniProt Q28165 2-306); assay: sandwich ELISA: 3F5 coated, native PABPN1 captured
T2 sequence (looked up): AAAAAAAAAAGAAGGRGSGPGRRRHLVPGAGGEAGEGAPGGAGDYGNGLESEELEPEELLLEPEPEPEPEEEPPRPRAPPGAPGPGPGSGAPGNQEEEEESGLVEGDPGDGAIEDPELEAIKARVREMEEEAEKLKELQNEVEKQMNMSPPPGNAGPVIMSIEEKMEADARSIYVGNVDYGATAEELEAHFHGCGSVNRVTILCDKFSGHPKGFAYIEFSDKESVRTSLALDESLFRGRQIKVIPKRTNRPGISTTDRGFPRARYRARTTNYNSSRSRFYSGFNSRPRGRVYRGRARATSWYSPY

beta amyloid Aβ 1-42 = biological target: T3, beta amyloid Aβ 1-42 (UniProt P05067 672-713); assay: ELISA
T3 construct: domain: Aβ 1-42; The numbers 1-42 count on the Aβ peptide, not on the precursor; In immunohistochemistry the target is amyloid deposited in human brain sections; also called amyloid b-42; Amyloid-b-42

[4] = biological target: T2, native PABPN1 purified from bovine calf …; assay: affinity measurement (Biacore)
[5] = biological target: T4, PABPN1 point mutant V126S (UniProt Q86U42 1-306, limits assumed); assay: Western blot of purified mutant proteins
T4 sequence (looked up): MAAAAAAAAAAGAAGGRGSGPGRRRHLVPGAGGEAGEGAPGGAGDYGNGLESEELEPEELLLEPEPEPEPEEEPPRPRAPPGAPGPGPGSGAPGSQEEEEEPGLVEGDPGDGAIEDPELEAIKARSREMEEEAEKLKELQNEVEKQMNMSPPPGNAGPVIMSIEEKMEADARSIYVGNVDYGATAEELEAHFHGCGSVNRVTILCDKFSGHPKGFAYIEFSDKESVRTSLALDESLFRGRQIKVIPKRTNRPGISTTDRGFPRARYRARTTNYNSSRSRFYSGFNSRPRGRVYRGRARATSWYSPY
Text: (§1) Proteins were separated by SDS-PAGE followed by Coomassie Brilliant Blue staining or transfer to PVDF Western blotting membranes (Roche Diagnostics, Almere, The Netherlands) using the Mini-PROTEAN 8 system for gel electrophoresis and the Mini Trans-Blot Cell for blotting of the proteins (Bio-Rad Laboratories, Hercules, Calif., USA). […] For phage detection a 10,000-fold dilution of a HRP-conjugated monoclonal antibody which binds to the phage coat protein was used (Amersham Biosciences, Uppsala, Sweden).

[6] = biological target: T5, PABPN1 point mutant M129A (UniProt Q86U42 1-306, limits assumed); assay: Western blot of purified mutant proteins
T5 sequence (looked up): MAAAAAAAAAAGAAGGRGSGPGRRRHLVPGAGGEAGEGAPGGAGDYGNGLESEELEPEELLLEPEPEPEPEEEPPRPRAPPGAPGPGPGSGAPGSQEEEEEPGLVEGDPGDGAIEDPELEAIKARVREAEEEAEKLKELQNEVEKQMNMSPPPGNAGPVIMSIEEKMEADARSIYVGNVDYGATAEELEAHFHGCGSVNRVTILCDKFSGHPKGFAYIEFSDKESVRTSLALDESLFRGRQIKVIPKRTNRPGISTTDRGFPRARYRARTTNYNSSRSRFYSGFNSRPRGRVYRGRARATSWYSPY
Text: as §1

[7] = biological target: T1, recombinant full-length human PABPN1 …; assay: BIAcore affinity measurement (SPR, CM5 chip)
Experimental: Affinities were calculated using Biacore evaluation software.

T3 sequence (P05067 672-713 limits assumed): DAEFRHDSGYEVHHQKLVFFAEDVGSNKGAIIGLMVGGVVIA

B1: VHH 29 (VHH)
VHH: QVQLVESGGGLVQAGDSLRLSCAASGRTFSSYVMGWFRQAPGKEREFVAAVTGGGISTYYADSVKGRFTISRDNAKNTVYLQMNSLTPEDTAVYYCYARRLNSWGQGTQVTISS
notes: also called antibody fragment 29
- Kd [1]: 11 nM
- Kd [2]: 11 nM
- binding result [3]: binds

B2: VHH 3A9 (VHH)
VHH: QVQLVESGGDLVQAGGSLRLSCAASGHTFDSYGMGWFRQRPGKGREFVAAITMIGGSTHYADSAKGRFTISRDNTKNTISLQMNSLKPEDTAVYYCHAFSRSRFEGYWGQGIQVTVSS
- Kd [2]: 8 nM

B3: VHH 11D (VHH)
VHH: AVQLVESGGGLVQAGGSLRLSCAASQRTFSSYVMGWFRQAPGKEREFVAAIGWSGGSTAYADSVKGRFTISRDNARNTVYLQMNSLKPEDTAVYYCASAPTRWVPRDSRFYDRWGQGTRVTVSS
notes: Selected against amyloid b-42
- binding result (beta amyloid Aβ 1-42): binds

B4: VHH 3A (VHH)
VHH: AVQLVESGGGLVRDGGSLRLSCAASGRTFSSYVMGWFRQAPGKEREFVAAIGWSGGSTAYADSVKGRFTISRDNARNTVYLQMNSLKPEDTAVYYCASAPTRWVPRDSRFYDRWGQGTRVTVSS
notes: Selected against Aβ 1-42; 15N-labeled in the NMR titration; also called anti-Aβ1-42 VHH 3A
- binding result (beta amyloid Aβ 1-42): binds

B5: VHH 3E9 (VHH)
VHH: QVQLQESGGGLVQPGGSLRLSCVASGFTFSDNAMSWVRRAPGKGLEWVSAINRAGDSARYADSVKGRFTISRDNAKNTLYLQMNSLKPEDTAVYYCTNGGNYRGQGTQVTVSA
- Kd [2]: 14 nM

B6: VHH 08 (VHH)
VHH: EVQLVESGGGLVQPGGSLRLSCVASGRTSRISRMAWFRQVPGNERELVATMSSSGITSYAGSVKGRFTISRDNAKNTVDLQMNSLKPEDTAVYYCKYSSRWNIYWGQGTQVTVSS
notes: Alignment gaps removed
- Kd [1]: 57 nM
- Kd [2]: 57 nM

B7: VHH 3F5 (VHH)
VHH: EVQLVESGGGLVQAGGSLRLSCAASGRTFSGYGMGWFRQAPGKEREFVAAISWRGGNTYYADSVKGRFTISRDNAKNTVWLQMNSLKPEDTAVYYCSGFVRTRDDPSRIRNYWGQGTQVTVST
notes: also called anti-PABPN1 VHH (3F5)
- Kd [4]: 5 nM
- binding result [5]: no binding
- binding result [6]: no binding
- Kd [7]: 5 nM

B8: VHH 18 (VHH)
VHH: AVQLVESGGGLVQAGGSLRLSCAASGSIVSLATMGWYRQAPGNQRELVATMSSSGITSYAGSVKGRFTYSRDNAKNTVDLQMNSLKPEDTAVYYCKYSSRWNIYWGQGTLVTVSS
notes: Alignment gaps removed
- Kd [1]: 7 nM
- Kd [2]: 7 nM
